Source: patent US20250276075A1, “METHODS OF TREATING AXL-EXPRESSING CANCERS WITH ANTI-AXL ANTIBODIES, ANTIBODY FRAGMENTS AND THEIR IMMUNOCONJUGATES” (BIOATLA, INC., priority 2020, published 2025)
Changes are numbered by the printed parent chain. Names may count otherwise.

B1: HC-T033I (antibody, V domains shown)
VH: EVQLVQSGAEVKKPGATVKISCKVSGYSFTGHIMNWIRQPPGKGLEWIGLIKPSNGGTSYNQKFKGRVTISADKSISTAYLQWSSLKASDTAMYYCAHGHYESYFAMDYWGQGTLVTVSS
VL: DIQMTQSPSSLSASVGDRVTITCKASQDVSSAVAWYQQKPGQAPRLLIYWASTRHTGVPSRFSGSGSGTEFTLTISSLQPDDFATYYCQEHFSTPLTFGQGTKVEIK
B2: HC-Y104P (antibody, V domains shown)
VH: B1 VH with I33T, Y104P
VL: B1 VL
B3: HC-E102I (antibody, V domains shown)
VH: B1 VH with I33T, E102I
VL: B1 VL
B4: HC-F105N (antibody, V domains shown)
VH: B1 VH with I33T, F105N
VL: B1 VL
B5: HC-E102A (antibody, V domains shown)
VH: B1 VH with I33T, E102A
VL: B1 VL
B6: HC-F105S (antibody, V domains shown)
VH: B1 VH with I33T, F105S
VL: B1 VL
B7: HC-E102D (antibody, V domains shown)
VH: B1 VH with I33T, E102D
VL: B1 VL
B8: HC-F105T (antibody, V domains shown)
VH: B1 VH with I33T, F105T
VL: B1 VL
B9: HC-E102G (antibody, V domains shown)
VH: B1 VH with I33T, E102G
VL: B1 VL
B10: HC-F105V (antibody, V domains shown)
VH: B1 VH with I33T, F105V
VL: B1 VL
B11: HC-E102H (antibody, V domains shown)
VH: B1 VH with I33T, E102H
VL: B1 VL
B12: HC-E102M (antibody, V domains shown)
VH: B1 VH with I33T, E102M
VL: B1 VL
B13: HC-A106D (antibody, V domains shown)
VH: B1 VH with I33T, A106D
VL: B1 VL
B14: HC-W110T (antibody, V domains shown)
VH: B1 VH with I33T, W110T
VL: B1 VL
B15: HC-A106G (antibody, V domains shown)
VH: B1 VH with I33T, A106G
VL: B1 VL
B16: HC-W110N (antibody, V domains shown)
VH: B1 VH with I33T, W110N
VL: B1 VL
B17: HC-A106L (antibody, V domains shown)
VH: B1 VH with I33T, A106L
VL: B1 VL
B18: HC-W110L (antibody, V domains shown)
VH: B1 VH with I33T, W110L
VL: B1 VL
B19: HC-A106Y (antibody, V domains shown)
VH: B1 VH with I33T, A106Y
VL: B1 VL
B20: HC-W110R (antibody, V domains shown)
VH: B1 VH with I33T, W110R
VL: B1 VL
B21: HC-M107E (antibody, V domains shown)
VH: B1 VH with I33T, M107E
VL: B1 VL
B22: HC-W110D (antibody, V domains shown)
VH: B1 VH with I33T, W110D
VL: B1 VL
B23: HC-M107F (antibody, V domains shown)
VH: B1 VH with I33T, M107F
VL: B1 VL
B24: HC-W110A (antibody, V domains shown)
VH: B1 VH with I33T, W110A
VL: B1 VL
B25: HC-W110P (antibody, V domains shown)
VH: B1 VH with I33T, W110P
VL: B1 VL

Experiments:
Axl [1] = target: Axl (UniProt P30530); experiment: ELISA, 1:9 dilution
Axl [2] = target: Axl (UniProt P30530); experiment: ELISA, 1:3 dilution
Axl [3] = target: T1, Axl (Homo sapiens, UniProt P30530); experiment: Affinity ELISA of CPE mutant antibodies for binding to Axl at pH 6.0 over pH 7.4; conditions: heavy chain variable region mutants; for Affinity ELISA CPE mutant ratio (1:3, pH 6.0/7.4): 1:3 dilution; for Affinity ELISA CPE mutant ratio (1:9, pH 6.0/7.4): 1:9 dilution
T1 sequence (P30530 26-451 limits assumed): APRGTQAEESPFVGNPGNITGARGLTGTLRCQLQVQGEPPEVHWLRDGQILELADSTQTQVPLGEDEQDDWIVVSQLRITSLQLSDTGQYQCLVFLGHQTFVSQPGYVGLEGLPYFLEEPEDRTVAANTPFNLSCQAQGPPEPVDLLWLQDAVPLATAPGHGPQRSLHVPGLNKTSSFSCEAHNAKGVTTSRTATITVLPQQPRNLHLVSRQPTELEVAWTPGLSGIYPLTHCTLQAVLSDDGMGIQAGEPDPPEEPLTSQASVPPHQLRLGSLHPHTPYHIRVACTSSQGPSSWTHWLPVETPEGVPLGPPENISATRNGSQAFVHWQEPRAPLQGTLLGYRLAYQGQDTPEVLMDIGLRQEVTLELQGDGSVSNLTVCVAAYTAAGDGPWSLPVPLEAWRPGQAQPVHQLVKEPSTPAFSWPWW
In short: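 Single-point mutant anti-Axl antibody library (CPE) screened by ELISA for binding at pH 6.0 versus pH 7.4, at 1:3 and 1:9 antibody dilutions, in serum with FLAG-tag detection and carbonate (Krebs-Ringer) buffer. Selection criterion: pH 6.0/pH 7.4 binding ratio ≥1.5 at either dilution.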

| Molecule | Affinity ELISA CPE mutant ratio (1:9, pH 6.0/7.4) (Axl [1]) | Affinity ELISA CPE mutant ratio (1:3, pH 6.0/7.4) (Axl [2]) | Affinity ELISA CPE mutant ratio (1:3, pH 6.0/7.4) (Axl [3]) | Affinity ELISA CPE mutant ratio (1:9, pH 6.0/7.4) (Axl [3]) |
| --- | --- | --- | --- | --- |
| B1 | 1 | 1.59 | 1.594 | 1.005 |
| B2 | 2.42 | 2.54 | 2.535 | 2.416 |
| B3 | 1.7 | 2.02 | 2.016 | 1.696 |
| B4 | 2.64 | 2.36 | 2.364 | 2.642 |
| B5 | 1.69 | 1.54 | 1.538 | 1.687 |
| B6 | 4.54 | 3.9 | 3.898 | 4.545 |
| B7 | 2.85 | 2.67 | 2.674 | 2.853 |
| B8 | 4.02 | 3.46 | 3.463 | 4.021 |
| B9 | 2.68 | 1.8 | 1.798 | 2.677 |
| B10 | 2.8 | 2.43 | 2.429 | 2.801 |
| B11 | 2.31 | 2.08 | 2.076 | 2.315 |
| B12 | 2.36 | 2.08 | 2.079 | 2.363 |
| B13 | 2.51 | 3.39 | 3.389 | 2.506 |
| B14 | 1.37 | 7.47 | 7.469 | 1.372 |
| B15 | 2.2 | 1.52 | 1.519 | 2.196 |
| B16 | 0.8 | 4.3 | 4.304 | 0.800 |
| B17 | 1.61 | 21.5 | 21.538 | 1.613 |
| B18 | 0.924 | 8.22 | 8.220 | 0.924 |
| B19 | 3.06 | 3.29 | 3.293 | 3.060 |
| B20 | 1.06 | 5.99 | 5.991 | 1.062 |
| B21 | 1.36 | 2.16 | 2.164 | 1.357 |
| B22 | 1.11 | 3.72 | 3.716 | 1.112 |
| B23 | 1.09 | 20.6 | 20.579 | 1.090 |
| B24 | 1.2 | 7.91 | 7.909 | 1.198 |
| B25 | 2.15 | 6.49 | 6.490 | 2.148 |
